This assay concerns the target T1, linear CGQKLVG-conjugated-BSA.
T1 sequence (peptide, conjugated to BSA): CGQKLVG
The assay is described as follows: SPR direct binding (MASS-1), linear peptide-BSA immobilised, supernatant flowed.

Results on one molecule are retold here after patent US20210087243A1.

B1: 305-61 (7E9) (antibody, mouse IgG3, V domains shown)
VH: QVQLQQSGAELVRPGASVTLSCKASGYTFTDYEMHWVKQTPVHGLEWIGAIDPETGDTAYNQEFKGKATLTADKSSSTAYMELRSLTSEDSAVYYCTSPIYYDYDWFAYWGHGTLVTVSA
VL: DIVMSQSPSSLAVSAGEKVTMSCKSSQSLLNNRTRKNYLAWYQQKPGQSPKLLIYWASTRESGVPDRFTGSGSGTDFTLTISSVQAEDLAVYYCKQSYNLRTFGGGTKLEIKR
In turn, B1 returned a binding response (RU) of 7.7 RU.
